Laboratory results from paper PMC6393309 (Nucleic Acids Research, 2019).
Positions count from the first letter of the chain named. In names and notes the source's numbering stands.

B1: F94E λexo: λ Exo variant (protein)
chain: MTPDIILQRTGIDVRAVEQGDDAWHKLRLGVITASEVHNVIAKPRSGKKWPDMKMSYFHTLLAEVCTGVAPEVNAKALAWGKQYENDARTLFEETSGVNVTESPIIYRDESMRTACSPDGLCSDGNGLELKCPFTSRDFMKFRLGGFEAIKSAYMAQVQYSMWVTRKNAWYFANYDPRMKREGLHYVVIERDEKYMASFDEIVPEFIEKMDEALAEIGFVFGEQWR
modifications: left off: His6, N-terminal, kept
B2: F94A λexo (protein)
chain: B1 chain with E94A
modifications: left off: His6, N-terminal, kept
B3: D87A λexo (protein)
chain: B1 chain with D87A, E94F
modifications: left off: His6, N-terminal, kept
B4: L91D λexo (protein)
chain: B1 chain with L91D, E94F
modifications: left off: His6, N-terminal, kept
B5: L91A λexo (protein)
chain: B1 chain with L91A, E94F
modifications: left off: His6, N-terminal, kept
B6: F249A Redβ: Redβ variant (protein)
chain: MSTALATLAGKLAERVGMDSVDPQELITTLRQTAFKGDASDAQFIALLIVANQYGLNPWTKEIYAFPDKQNGIVPVVGVDGWSRIINENQQFDGMDFEQDNESCTCRIYRKDRNHPICVTEWMDECRREPFKTREGREITGPWQSHPKRMLRHKAMIQCARLAFGFAGIYDKDEAERIVENTAYTAERQPERDITPVNDETMQEINTLLIALDKTWDDDLLPLCSQIFRRDIRASSELTQAEAVKALGALKQKAAEQKVAA
B7: L223D Redβ: Redβ variant (protein)
chain: B6 chain with L223D, A249F
B8: Q226A Redβ: Redβ variant (protein)
chain: B6 chain with Q226A, A249F
B9: R229A Redβ: Redβ variant (protein)
chain: B6 chain with R229A, A249F
B10: K253A Redβ (protein)
chain: B6 chain with A249F, K253A
B11: F249D Redβ (protein)
chain: B6 chain with A249D
B12: K132A Redβ: Redβ variant, non-interfacial residue Lys-132 of the NTD, control (protein)
chain: B6 chain with K132A, A249F
B13: L223A Redβ: Redβ variant (protein)
chain: B6 chain with L223A, A249F
B14: NTD: N-terminal domain of Redβ, residues 1–177 (protein)
chain: MSTALATLAGKLAERVGMDSVDPQELITTLRQTAFKGDASDAQFIALLIVANQYGLNPWTKEIYAFPDKQNGIVPVVGVDGWSRIINENQQFDGMDFEQDNESCTCRIYRKDRNHPICVTEWMDECRREPFKTREGREITGPWQSHPKRMLRHKAMIQCARLAFGFAGIYDKDEAER

Legend:
GB2005 E. coli cells [1] = assay: dsDNA recombination assay; assay type: cell-based; settings: % of WT colonies per 10^8 viable cells
GB2005 E. coli cells [2] = assay: ssDNA recombination assay; assay type: cell-based; settings: % of WT colonies per 10^8 viable cells
λ Exo = settings: Ni-spin pull down; cited from earlier work

Molecule	DS (%): dsDNA recombination compared to WT (GB2005 E. coli cells [1]) [%]	SS (%): ssDNA recombination compared to WT (GB2005 E. coli cells [2]) [%]	other results
B1	0.68	177	DS (%): dsDNA recombination compared to WT (GB2005 E. coli cells [1]; listed as F94E): 0.6–3%
B2	1.6	183	
B3	55	179	DS (%): dsDNA recombination compared to WT (GB2005 E. coli cells [1]; listed as D87A): 55–106%
B4	3.1	110	
B5	0.63	103	
B6	0.21	0.73	DS (%): dsDNA recombination compared to WT (GB2005 E. coli cells [1]; listed as F249A): 0–0.7%
B7	0.11	0.68	DS (%): dsDNA recombination compared to WT (GB2005 E. coli cells [1]; listed as L223D): 0–0.7%
B8	106		DS (%): dsDNA recombination compared to WT (GB2005 E. coli cells [1]; listed as Q226A): 55–106%; SS (%): ssDNA recombination compared to WT (GB2005 E. coli cells [2]; listed as Q226A): 13 to 101%
B9	71	58	DS (%): dsDNA recombination compared to WT (GB2005 E. coli cells [1]; listed as R229A): 55–106%; SS (%): ssDNA recombination compared to WT (GB2005 E. coli cells [2]; listed as R229A): 13 to 101%
B10	0.20	2.5	
B11	0	0.41	
B12	19	20	
B13	0.72	3.5	DS (%): dsDNA recombination compared to WT (GB2005 E. coli cells [1]; listed as L223A): 0–0.7%
B14			interaction with λ Exo (λ Exo): no interaction
